According to paper doi:10.1101/2020.01.02.892901:
Where “and” joins values, the source holds several entries; their conditions need not be identical. Identical values can stand only once.

Biological target: MET pY1313 phosphopeptide (human)
Test: fluorescence polarisation

Kd: 3 µM and 12 µM
Substance: FGR SH2 domain (from UniProt P09769 144-241) (domain or fragment)
